Measurements published in the supplement of paper PMC10567573.

B1: KCNK9 (parent)
chain: CFITLTTIGFGDYVALQTKGALQK
B2: EPB41L3 (parent)
chain: SMQCKVILLDGSEYTCDVEKRSRG

Variants of: B1
Test: protein stability index of a GFP-peptide fusion (GPS, HEK-293T) (PSI 1-6); higher = more stable
Settings: c terminus: a fixed tail appended
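Also: lentivirally expressed fusions sorted by FACS into six bins by GFP to DsRed ratio, PSI derived from sequencing read proportions per bin multiplied by bin number.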

Protein stability index of substitutions, site by site:
I8: A 2.08; C 2.37; D 2.14; E 2.39; F 2.8; G 2.78; H 3.24; K 1.53; L 3.63; M 2.03; N 2.27; P 2.39; Q 3.37; R 1.67; S 2.95; T 3.29; V 3.42; Y 1.78
G9: A 3.95; C 2.83; D 2.33; E 1.58; F 3.77; H 2.51; I 2.7; K 2.5; L 3.46; M 2.8; N 2.02; P 1.99; Q 2.81; R 1.36; S 1.73; T 2.21; V 4.79; W 2.9; Y 1.93
F10: A 2.05; C 2.79; D 2.17; E 2.46; G 2.16; H 2.73; K 1.85; L 2.73; M 2.62; N 1.58; P 2.78; Q 1.56; R 1.7; S 1.39; T 2.59; V 2.06; W 2.33; Y 2.12
G11: A 3.32; C 3.41; D 3.33; E 3.16; F 3.25; H 3.08; I 2.91; K 2.73; L 3.22; M 1.85; N 2.99; P 1.99; Q 2.7; R 3.04; S 2.18; T 1.62; V 2.31; Y 3.95
D12: A 3.21; C 3.65; E 2.69; F 2.49; G 3.42; H 3.68; I 3.71; K 2.82; M 4.64; N 2.71; P 2.67; Q 2.05; R 2.62; T 2.49; V 2.96; W 2.12; Y 3.4
Y13: A 3.35; C 3.93; D 2.1; E 2.12; G 2.42; H 2.07; I 2.31; K 2.24; L 2.38; M 3.32; N 2.04; P 2.92; Q 2.05; R 2.32; S 2.51; T 3.55; V 2.57; W 2.93
V14: A 3.25; D 2.74; E 2.12; F 3.46; G 2.69; H 2.99; I 2.86; K 1.82; L 3.31; M 2.02; N 1.86; P 2.82; Q 3.43; R 2.7; S 2.06; T 2.64; W 2.71; Y 3.12
A15: C 3.23; D 3.31; E 2.93; F 2.37; G 2.48; H 3.04; I 3.38; K 2.38; L 2.64; M 3.04; N 2.76; P 3.05; Q 2.3; R 3.46; S 4.26; T 3.18; V 2.68; W 3.31; Y 2.43
L16: A 3.26; C 2.03; D 2.23; E 3.25; F 2.53; G 1.89; H 2.43; I 2.65; K 3.4; M 1.56; N 2.54; P 2.64; Q 2.65; R 2.74; S 1.75; T 2.26; V 3.73; W 2.27; Y 2.44
Q17: C 3.88; D 2.17; E 2.76; F 3.02; G 2.38; H 3.57; I 2.27; K 2.82; L 2.23; M 2.23; N 2.33; P 3.82; R 2.83; T 2.08; V 3.42; W 2.58; Y 3.01
T18: A 2.8; C 3.43; D 1.76; E 2.28; F 1.72; H 3; I 2.12; K 1.58; L 3.51; M 2.49; N 2.42; P 1.64; Q 2.63; R 2.64; S 2.27; W 3.1; Y 3.26
K19: A 3.43; D 3.22; E 2.46; F 1.95; G 1.24; H 1.98; I 2.23; L 2.36; N 4.09; P 4.04; Q 2.16; R 3.19; S 2.11; T 4.24; V 3.26; W 2.13; Y 3.38
G20: A 3.49; C 3.1; D 3.25; E 3.59; F 3.39; H 2.6; I 2.58; N 3.17; P 2.55; Q 3.38; R 3.65; S 3.74; T 5.14; W 3.87; Y 2.54
A21: C 3.22; D 2.88; E 3.6; F 3.44; G 2.1; H 3.21; I 2.44; K 3.05; L 3.54; M 1.99; N 2.39; P 2.97; Q 2.21; R 3.3; S 2.43; T 2.56; V 2.29; W 3.01
L22: A 3.37; C 2.29; D 4.33; E 3.67; F 2.72; G 2.86; I 2.06; K 2.4; M 3.38; N 1.91; P 2.56; Q 2.46; R 2.12; S 3.93; T 3.37; V 2.62; W 2.21; Y 2.37
Q23: A 3.76; C 2.6; D 2.98; E 1.94; F 2.87; G 3.46; H 3.06; I 3.28; K 2.96; L 3.52; N 2.43; P 2.14; R 1.72; S 2.2; T 3.26; V 4.51; W 2.73; Y 2.42
K24: A 2.85; C 2.9; D 3.71; E 3.56; F 3.25; G 2.28; H 2.47; I 2.09; L 2.51; M 2.88; N 3.29; P 2.96; Q 2.33; S 3.33; T 3.42; V 3.03; Y 3.16

Variants of: B2
Test: as above
Settings: c terminus: a fixed tail appended

Protein stability index of substitutions, site by site:
S1: A 2.86; C 1.74; D 3.27; E 3.32; F 2; G 2.37; H 2.19; I 1.93; K 1.93; L 2.2; M 3.46; N 2.34; P 3.04; Q 2.64; R 1.95; T 1.92; V 1.78; W 2; Y 1.37
M2: A 3.24; C 2.08; D 3.38; E 4.4; F 2.55; G 3.36; H 2.9; I 2.12; K 3.24; L 2.55; N 4.06; P 3.42; Q 3.64; R 2.72
